Consider one molecule from patent US11260101 (JINAN UNIVERSITY, dated 2022).

This experiment has as its target T1, fibroblast growth factor receptor 2 (FGFR2).
T1 construct: also called membrane receptor FGFR2
As to the kind of experiment: isothermal titration calorimetry (ITC). The text has this: 1. Detection of the Affinity Between the Repair Peptide R1 and FGFR2 by Using the ITC Method The affinity was detected by an isothermal totration calorimetry (ITC), and the detection result was shown in FIG. 1. […] (The K denoted the affinity constant, and the Kd denoted the dissociation constant. The larger the K was and the smaller the Kd was, the stronger the affinity was).
For orientation: ITC needs no label: the signal is the heat of the interaction.

T1 sequence (P21802 22-821): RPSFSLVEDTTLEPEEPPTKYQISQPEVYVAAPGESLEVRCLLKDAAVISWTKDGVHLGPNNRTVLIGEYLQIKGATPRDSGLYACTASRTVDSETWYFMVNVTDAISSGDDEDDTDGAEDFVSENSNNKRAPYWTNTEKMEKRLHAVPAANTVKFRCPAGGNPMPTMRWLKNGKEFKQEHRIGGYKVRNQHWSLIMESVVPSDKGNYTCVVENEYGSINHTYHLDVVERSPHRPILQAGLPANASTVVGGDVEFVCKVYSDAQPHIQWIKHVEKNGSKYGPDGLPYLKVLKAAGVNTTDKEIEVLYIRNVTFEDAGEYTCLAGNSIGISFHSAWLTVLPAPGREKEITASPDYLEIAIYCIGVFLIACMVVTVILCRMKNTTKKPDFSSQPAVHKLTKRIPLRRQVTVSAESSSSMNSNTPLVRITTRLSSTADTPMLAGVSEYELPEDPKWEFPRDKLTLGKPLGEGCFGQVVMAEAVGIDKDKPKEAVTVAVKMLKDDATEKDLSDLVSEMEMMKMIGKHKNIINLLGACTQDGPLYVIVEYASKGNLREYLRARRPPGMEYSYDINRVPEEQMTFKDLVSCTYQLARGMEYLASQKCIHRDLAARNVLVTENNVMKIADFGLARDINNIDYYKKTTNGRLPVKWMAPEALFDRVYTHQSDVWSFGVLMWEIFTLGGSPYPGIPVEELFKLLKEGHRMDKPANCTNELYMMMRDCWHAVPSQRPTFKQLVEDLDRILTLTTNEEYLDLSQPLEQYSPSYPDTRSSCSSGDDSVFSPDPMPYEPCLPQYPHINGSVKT

B1: repair peptide R1 (peptide)
peptide: GPANVET
notes: Linear 7-residue peptide made by chemical synthesis; also called R1 peptide; GPANVET
Regarding B1, the Ka amounted to 7.35e+08 M⁻¹ and the Kd – broadly, the free concentration of one partner at which half of the binding sites on the other are occupied at equilibrium, for simple one-to-one binding – was roughly 1.37 nM.
